# B1: FBXO34 (parent)
# chain: ASSVESTLPVLEASSWKKQVSHDF
# Variants of: B1
# Experiment: protein stability index of a GFP-peptide fusion (GPS, HEK-293T) (PSI 1-6); higher = more stable
# Details: c terminus: a fixed tail appended
# 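Also: lentivirally expressed fusions sorted by FACS into six bins by GFP to DsRed ratio, PSI derived from sequencing read proportions per bin multiplied by bin number.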
row,Variant,protein stability index
1,ASSVESTLPVLEASSWKKQVSHFF [D23F],3.22
2,ASSVESTLPVLEASSWKKQVSHGF [D23G],3.06
3,ASSVESTLPVLEASSWKKQVSHCF [D23C],2.22
4,ASSVESTLPVLEASSWKKQVSHHF [D23H],3.27
5,ASSVESTLPVLEASSWKKQVSHMF [D23M],2.96
6,ASSVESTLPVLEASSWKKQVSHYF [D23Y],2.18
7,ASSVESTLPVLEASSWKKQVSHWF [D23W],2.61
8,ASSVESTLPVLEASSWKKQVSHQF [D23Q],2.93
9,ASSVESTLPVLEASSWKKQVSHTF [D23T],3.26
10,ASSVESTLPVLEASSWKKQVSHRF [D23R],3.76
11,ASSVESTLPVLEASSWKKQVSHIF [D23I],2.07
12,ASSVESTLPVLEASSWKKQVSHSF [D23S],3.14
13,ASSVESTLPVLEASSWKKQVSHAF [D23A],3.54
14,ASSVESTLPVLEASSWKKQVSHEF [D23E],1.77
15,ASSVESTLPVLEASSWKKQVSHPF [D23P],2.91
16,ASSVESTLPVLEASSWKKQVSHLF [D23L],3.27
17,ASSVESTLPVLEASSWKKQVSHKF [D23K],3.54
18,ASSVESTLPVLEAWSWKKQVSHDF [S14W],1.12
19,ASSVESTLPVLEAYSWKKQVSHDF [S14Y],2.3
20,ASSVESTLPVLEASSWKKQVSVDF [H22V],2.83
21,ASSVESTLPVLEASSWKKQVSSDF [H22S],2.79
22,ASSVESTLPVLEASSWKKQVSGDF [H22G],4.47
23,ASSVESTLPVLEASSWKKQVSRDF [H22R],2.09
24,ASSVESTLPVLEASSWKKQVSTDF [H22T],3.19

row,Variant,protein stability index
1,ASSVESTLPVLEASSWKKQVSNDF [H22N],2.54
2,ASSVESTLPVLEASSWKKQVSMDF [H22M],2.23
3,ASSVESTLPVLEASSWKKQVSKDF [H22K],3.31
4,ASSVESTLPVLEASSWKKQVSPDF [H22P],4.1
5,ASSVESTLPVLEASSWKKQVSQDF [H22Q],2.58
6,ASSVESTLPVLEASSWKKQVSDDF [H22D],3.65
7,ASSVESTLPVLEASSWKKQVSEDF [H22E],2.69
8,ASSVESTLPVLEASSWKKQVSIDF [H22I],2.84
9,ASSVESTLPVLEASSWKKQVSWDF [H22W],2.18
10,ASSVESTLPVLEASSWKKQVSLDF [H22L],3.36
11,ASSVESTLPVLEASSWKKQVSFDF [H22F],2.73
12,ASSVESTLPVLEASSWKKQVSCDF [H22C],2.94
13,ASSVESTLPVLEASSWKKQVSYDF [H22Y],3.01
14,ASSVESTLPVLEASSNKKQVSHDF [W16N],4.99
15,ASSVESTLPVLEASSVKKQVSHDF [W16V],4.99
16,ASSVESTLPVLEASSEKKQVSHDF [W16E],5.07
17,ASSVESTLPVLEASSAKKQVSHDF [W16A],4.01
18,ASSVESTLPVLEASSTKKQVSHDF [W16T],4.81
19,ASSVESTLPVLEASSQKKQVSHDF [W16Q],4.71
20,ASSVESTLPVLEASSKKKQVSHDF [W16K],4.18
21,ASSVESTLPVLEASSPKKQVSHDF [W16P],4.61
22,ASSVESTLPVLEASSDKKQVSHDF [W16D],5.44
23,ASSVESTLPVLEASSRKKQVSHDF [W16R],4.69
24,ASSVESTLPVLEASSIKKQVSHDF [W16I],3.71

row,Variant,protein stability index
1,ASSVESTLPVLEASSCKKQVSHDF [W16C],4.2
2,ASSVESTLPVLEASSSKKQVSHDF [W16S],4.2
3,ASSVESTLPVLEASSHKKQVSHDF [W16H],4.31
4,ASSVESTLPVLEASSLKKQVSHDF [W16L],3.94
5,ASSVESTLPVLEASSFKKQVSHDF [W16F],3.67
6,ASSVESTLPVLEASSMKKQVSHDF [W16M],5.15
7,ASSVESTLPVLEASSGKKQVSHDF [W16G],4.66
8,ASSVESTLPVLEASSYKKQVSHDF [W16Y],3.75
9,ASSVESTLPVLEASSWKKCVSHDF [Q19C],2.92
10,ASSVESTLPVLEASSWKKTVSHDF [Q19T],3.3
11,ASSVESTLPVLEASSWKKHVSHDF [Q19H],4.77
12,ASSVESTLPVLEASSWKKGVSHDF [Q19G],4.14
13,ASSVESTLPVLEASSWKKKVSHDF [Q19K],1.89
14,ASSVESTLPVLEASSWKKMVSHDF [Q19M],2.27
15,ASSVESTLPVLEASSWKKAVSHDF [Q19A],2.61
16,ASSVESTLPVLEASSWKKLVSHDF [Q19L],2.57
17,ASSVESTLPVLEASSWKKRVSHDF [Q19R],1.95
18,ASSVESTLPVLEASSWKKYVSHDF [Q19Y],2.01
19,ASSVESTLPVLEASSWKKEVSHDF [Q19E],4.58
20,ASSVESTLPVLEASSWKKWVSHDF [Q19W],2.59
21,ASSVESTLPVLEASSWKKFVSHDF [Q19F],2.82
22,ASSVESTLPVLEASSWKKSVSHDF [Q19S],4.08
23,ASSVESTLPVLEASSWKKIVSHDF [Q19I],2.45
24,ASSVESTLPVLEASSWKKPVSHDF [Q19P],4.53

row,Variant,protein stability index
1,ASSVESTLPVLEASSWKKDVSHDF [Q19D],4.28
2,ASSVESTLPVLEASSWKKNVSHDF [Q19N],3.97
3,ASSVESTLPVLEASSWAKQVSHDF [K17A],1.83
4,ASSVESTLPVLEASSWLKQVSHDF [K17L],2.85
5,ASSVESTLPVLEASSWIKQVSHDF [K17I],1.59
6,ASSVESTLPVLEASSWSKQVSHDF [K17S],2.38
7,ASSVESTLPVLEASSWFKQVSHDF [K17F],2.85
8,ASSVESTLPVLEASSWQKQVSHDF [K17Q],1.52
9,ASSVESTLPVLEASSWHKQVSHDF [K17H],3.17
10,ASSVESTLPVLEASSWDKQVSHDF [K17D],4.16
11,ASSVESTLPVLEASSWGKQVSHDF [K17G],2.98
12,ASSVESTLPVLEASSWMKQVSHDF [K17M],2.58
13,ASSVESTLPVLEASSWWKQVSHDF [K17W],2.02
14,ASSVESTLPVLEASSWNKQVSHDF [K17N],3.75
15,ASSVESTLPVLEASSWPKQVSHDF [K17P],3.95
16,ASSVESTLPVLEASSWCKQVSHDF [K17C],3.17
17,ASSVESTLPVLEASSWTKQVSHDF [K17T],1.61
18,ASSVESTLPVLEASSWYKQVSHDF [K17Y],2.38
19,ASSVESTLPVLEASSWKKQVIHDF [S21I],2.64
20,ASSVESTLPVLEASSWKKQVWHDF [S21W],2.3
21,ASSVESTLPVLEASSWKKQVRHDF [S21R],3.79
22,ASSVESTLPVLEASSWKKQVLHDF [S21L],2.44
